# In the supplement of paper PMC7877785:
# ± gives the uncertainty stated by the source.
# Test: self-splicing fitness, log relative to wild type (ln ratio); higher = more splicing; Tetrahymena group I intron in knt gene, E. coli kanamycin selection, DiMSum; sequences stand for … in CUCUCU…GGAGGGAAAAGUUAUCAGGCAUGCACCUGGUAGCUAGUCUUUAAACCAAUAGAUUGCAUCGGUUUAAAAGGCAAGACCGUCAAAUUGCGGGAAAGGGGUCAACAGCCGUUCAGUACCAAGUCUCAGGGGAAACUUUGAGAUGGCCUUGCAAAGGGUAUGGUAAUAAGCUGACGGACAUGGUCCUAACCACGCAGCCAAGUCCUAAGUCAACAGAUCUUCUGUUGAUAUGGAUGCAGUUCACAGACUAAAUGUCGGUCGGGGAAGAUGUAUUCUUCUCAUAAGAUAUAGUCGGACCUCUCCUUAAUGGGAGCUAGCGGAUGAAGUGAUGCAACACUGGAGCCGCUGGGAACUAAUUUGUAUGCGAAAGUAUAUUGAUUAGUUUUGGAGUACUCGUGGUCG
# How it was run: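 Fitness was computed with DiMSum as the error-weighted combination of replicate fold changes, kanamycin versus none, each normalised to wild type. The library randomised all eight intron nucleotides of the P1ex region, with the intron placed in the knt kanamycin-resistance gene on pET-22b(+) in E. coli BL21(DE3). Six replicate transformations were grown overnight at 37°C or 30°C on LB agar with or without 25 μg/mL kanamycin, plus 100 μg/mL carbenicillin, 50 μM IPTG and 0.2% rhamnose. Pooled colonies were amplicon-sequenced on an Illumina HiSeq 2500.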
Sequence,self-splicing fitness (ln) (30 °C),self-splicing fitness (ln) (37 °C)
GAUUAGCAAUAUUACGGAUA,-1.36 ± 0.17,0.0656 ± 0.2
GAUUAGCAAUAUUACGGCAG,-2.78 ± 0.31,-1.84 ± 0.23
GAUUAGCAAUAUUACGGCCC,-0.175 ± 0.083,-0.352 ± 0.12
GAUUAGCAAUAUUACGGCCU,-1.39 ± 0.12,-0.323 ± 0.098
GAUUAGCAAUAUUACGGUCG,-1.28 ± 0.11,-0.366 ± 0.13
GAUUAGCAAUAUUACGGUGG,-2.89 ± 0.2,-2.88 ± 0.2
GAUUAGCAAUAUUACGUAGU,-3.06 ± 0.15,-1.34 ± 0.12
GAUUAGCAAUAUUACGUGAG,-1.33 ± 0.073,0.0593 ± 0.096
GAUUAGCAAUAUUACGUGAU,-3.04 ± 0.11,-1.07 ± 0.091
GAUUAGCAAUAUUACGUGCC,0.747 ± 0.28,-0.667 ± 0.46
GCAAAGCAAUAUUACGAAAC,-1.75 ± 0.092,-0.783 ± 0.11
GCAAAGCAAUAUUACGAAUU,-2.67 ± 0.15,-0.942 ± 0.11
GCAAAGCAAUAUUACGACCU,-1.17 ± 0.13,0.204 ± 0.16
GCAAAGCAAUAUUACGAGCC,-2.28 ± 0.28,
GCAAAGCAAUAUUACGAGCG,-1.06 ± 0.077,-0.631 ± 0.093
GCAAAGCAAUAUUACGAUGA,-0.578 ± 0.076,0.353 ± 0.096
GCAAAGCAAUAUUACGCGCG,-1.55 ± 0.12,-0.161 ± 0.15
GCAAAGCAAUAUUACGCGUG,-3.41 ± 0.1,-1.27 ± 0.078
GCAAAGCAAUAUUACGCGUU,-1.96 ± 0.13,-2.03 ± 0.2
GCAAAGCAAUAUUACGCUUG,-3.98 ± 0.18,-2.64 ± 0.18
GCAAAGCAAUAUUACGCUUU,-3.49 ± 0.15,-3.27 ± 0.22
GCAAAGCAAUAUUACGGAUC,-1.26 ± 0.073,-0.379 ± 0.085
GCAAAGCAAUAUUACGGCCC,-0.121 ± 0.18,-0.618 ± 0.27
GCAAAGCAAUAUUACGGCUG,-2.43 ± 0.14,-1.24 ± 0.17

Sequence,self-splicing fitness (ln) (30 °C),self-splicing fitness (ln) (37 °C)
GCAAAGCAAUAUUACGGGUC,-2.55 ± 0.14,-1.05 ± 0.12
GCAAAGCAAUAUUACGGUUC,-2.17 ± 0.089,-0.948 ± 0.11
GCAAAGCAAUAUUACGUACG,-1.13 ± 0.083,-1.84 ± 0.13
GCAAAGCAAUAUUACGUAUC,-2.35 ± 0.082,-1.74 ± 0.076
GCAAAGCAAUAUUACGUGAA,-0.989 ± 0.099,-0.0746 ± 0.12
GCAAAGCAAUAUUACGUUAA,-1.83 ± 0.14,-1.45 ± 0.14
GCAAAGCAAUAUUACGUUAC,-2.75 ± 0.19,-1.3 ± 0.15
GCACAGCAAUAUUACGAACG,-1.53 ± 0.1,-0.558 ± 0.13
GCACAGCAAUAUUACGAAUC,-1.15 ± 0.076,-0.69 ± 0.079
GCACAGCAAUAUUACGACCA,-0.551 ± 0.11,-0.554 ± 0.14
GCACAGCAAUAUUACGACUC,-0.289 ± 0.067,0.76 ± 0.083
GCACAGCAAUAUUACGAUCU,-0.54 ± 0.064,0.0668 ± 0.085
GCACAGCAAUAUUACGCAGC,,-1.85 ± 0.21
GCACAGCAAUAUUACGCAUC,-1.07 ± 0.083,-0.51 ± 0.096
GCACAGCAAUAUUACGCCCG,-1.84 ± 0.17,-0.0618 ± 0.19
GCACAGCAAUAUUACGCGCA,-0.993 ± 0.099,-0.327 ± 0.093
GCACAGCAAUAUUACGCUGC,-4.12 ± 0.37,-2.1 ± 0.3
GCACAGCAAUAUUACGCUGU,-3.33 ± 0.14,-2.23 ± 0.17
GCACAGCAAUAUUACGGACU,-0.665 ± 0.082,-0.54 ± 0.086
GCACAGCAAUAUUACGGCUA,-0.204 ± 0.081,-0.393 ± 0.085
GCACAGCAAUAUUACGGGUA,-1.36 ± 0.055,-0.723 ± 0.061
GCACAGCAAUAUUACGGUCA,-0.62 ± 0.08,-0.276 ± 0.074
GCACAGCAAUAUUACGGUGA,-0.308 ± 0.07,-0.455 ± 0.079
GCACAGCAAUAUUACGUAAC,-1.83 ± 0.092,-0.651 ± 0.11

Sequence,self-splicing fitness (ln) (30 °C),self-splicing fitness (ln) (37 °C)
GCACAGCAAUAUUACGUAAG,-1.38 ± 0.06,-0.717 ± 0.079
GCACAGCAAUAUUACGUGAG,0.0789 ± 0.047,0.0342 ± 0.06
GCACAGCAAUAUUACGUUGU,-3.71 ± 0.12,-2.74 ± 0.12
GCAGAGCAAUAUUACGACGG,-2.22 ± 0.2,-1.21 ± 0.18
GCAGAGCAAUAUUACGACUC,-1.83 ± 0.15,-1.38 ± 0.17
GCAGAGCAAUAUUACGCAGG,-4.06 ± 0.39,-2.2 ± 0.22
GCAGAGCAAUAUUACGCGAC,,-2.27 ± 0.36
GCAGAGCAAUAUUACGCUUU,,-3.01 ± 0.27
GCAGAGCAAUAUUACGGAAG,-2.98 ± 0.28,-1.65 ± 0.18
GCAGAGCAAUAUUACGGUGC,-2.67 ± 0.19,-1.9 ± 0.24
GCAGAGCAAUAUUACGGUUC,-2.66 ± 0.28,-1.58 ± 0.24
GCAGAGCAAUAUUACGGUUU,-2.82 ± 0.17,-2.08 ± 0.15
GCAGAGCAAUAUUACGUAUG,-2.86 ± 0.35,-1.4 ± 0.42
GCAGAGCAAUAUUACGUUUC,-4.1 ± 0.39,-2.27 ± 0.44
GCAUAGCAAUAUUACGAAUU,-2.48 ± 0.2,-1.61 ± 0.2
GCAUAGCAAUAUUACGAGAG,-2.71 ± 0.27,-2.35 ± 0.21
GCAUAGCAAUAUUACGAGCA,-1.39 ± 0.23,-0.718 ± 0.2
GCAUAGCAAUAUUACGAUAG,-3.12 ± 0.17,-2.34 ± 0.2
GCAUAGCAAUAUUACGAUCG,-1.04 ± 0.11,-0.34 ± 0.12
GCAUAGCAAUAUUACGCACU,-0.629 ± 0.09,-0.277 ± 0.13
GCAUAGCAAUAUUACGCAGG,-2.58 ± 0.21,-1.35 ± 0.22
GCAUAGCAAUAUUACGCCAA,-4.09 ± 0.4,-2.76 ± 0.35
GCAUAGCAAUAUUACGCCAG,-2.88 ± 0.42,-2.94 ± 0.48
GCAUAGCAAUAUUACGCGCU,,-2.39 ± 0.31

Sequence,self-splicing fitness (ln) (30 °C),self-splicing fitness (ln) (37 °C)
GCAUAGCAAUAUUACGCGGU,-3.29 ± 0.16,-1.77 ± 0.16
GCAUAGCAAUAUUACGGACG,-1.7 ± 0.088,-0.659 ± 0.12
GCAUAGCAAUAUUACGGCCU,-1.44 ± 0.11,-0.683 ± 0.11
GCAUAGCAAUAUUACGGCGA,-0.526 ± 0.15,-0.873 ± 0.15
GCAUAGCAAUAUUACGGCUA,-1.16 ± 0.069,-0.431 ± 0.069
GCAUAGCAAUAUUACGGUCC,-1.71 ± 0.098,-1.48 ± 0.11
GCAUAGCAAUAUUACGGUUG,-2.82 ± 0.099,-1.39 ± 0.11
GCAUAGCAAUAUUACGUCAA,-2.89 ± 0.25,-1.82 ± 0.18
GCAUAGCAAUAUUACGUCGG,-2.24 ± 0.14,-1.47 ± 0.13
GCAUAGCAAUAUUACGUGGC,-2.72 ± 0.32,-2.15 ± 0.31
GCAUAGCAAUAUUACGUGGG,-3.68 ± 0.13,-2.82 ± 0.11
GCAUAGCAAUAUUACGUUCA,-1.41 ± 0.11,-0.882 ± 0.13
GCAUAGCAAUAUUACGUUUC,-4.77 ± 0.26,-3.01 ± 0.15
GCCAAGCAAUAUUACGACGC,-0.669 ± 0.11,0.3 ± 0.14
GCCAAGCAAUAUUACGAGCG,-2.34 ± 0.12,-1.08 ± 0.13
GCCAAGCAAUAUUACGAGGA,-1.37 ± 0.1,-0.561 ± 0.1
GCCAAGCAAUAUUACGAUAU,-2.75 ± 0.12,-2.01 ± 0.13
GCCAAGCAAUAUUACGAUCA,-3.6 ± 0.21,-1.2 ± 0.11
GCCAAGCAAUAUUACGAUGG,-3.61 ± 0.15,-1.79 ± 0.16
GCCAAGCAAUAUUACGCCAA,-2.4 ± 0.23,-1.19 ± 0.15
GCCAAGCAAUAUUACGCCCC,-1.02 ± 0.21,-0.946 ± 0.22
GCCAAGCAAUAUUACGCCCG,-2.72 ± 0.29,-0.836 ± 0.32
GCCAAGCAAUAUUACGCUGC,-3.01 ± 0.27,-2.04 ± 0.28
GCCAAGCAAUAUUACGCUUG,-3.72 ± 0.12,-2.41 ± 0.14
